Among the data in US20050192209A1 are inhibition of heparanase activity (35S-labeled ECM degradation), inhibition of heparanase activity (release of HS degradation fragments from 35S-labeled ECM, gel filtration) and inhibition of recombinant heparanase activity by eosinophil lysates (cellular MBP), 35S-labeled ECM degradation (fold excess of MBP over heparanase) values, retold here.

This experiment addresses human heparanase, active 50 kDa form (human) (UniProt Q9Y251). The experiment in a line: cell-based or functional assay.
Sequence of UniProt Q9Y251 (Q9Y251 158-543 limits assumed, form in doubt): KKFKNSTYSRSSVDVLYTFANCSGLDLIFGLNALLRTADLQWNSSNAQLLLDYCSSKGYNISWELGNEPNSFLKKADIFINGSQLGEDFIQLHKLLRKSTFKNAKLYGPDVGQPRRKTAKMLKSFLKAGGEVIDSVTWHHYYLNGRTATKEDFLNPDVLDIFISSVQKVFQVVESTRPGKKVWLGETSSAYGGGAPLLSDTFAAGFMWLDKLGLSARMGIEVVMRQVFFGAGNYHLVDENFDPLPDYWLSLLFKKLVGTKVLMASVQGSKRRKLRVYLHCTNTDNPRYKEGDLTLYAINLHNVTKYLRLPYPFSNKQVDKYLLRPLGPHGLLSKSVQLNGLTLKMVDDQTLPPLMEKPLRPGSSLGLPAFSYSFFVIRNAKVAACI

“And” between values parts separate entries of the source, which are not always exact repeats. Identical values can stand only once.

myelin basic protein had an inhibition of heparanase activity (35S-labeled ECM degradation) of 20 ng/mL.
Same read-out and setting: in the case of poly-L-arginine (peptide) it was 5 ng/mL and 13 ng/mL.

B1: Major Basic Protein (MBP) purified from human eosinophils (protein, UniProt P13727 106-222, looked up)
chain: TCRYLLVRSLQTFSQAWFTCRRCYRGNLVSIHNFNINYRIQCSVSALNQGQVWIGGRITGSGRCRRFQWVDGSRWNFAYWAAHQPWSRGGHCVALCTRGGHWRRAHCLRRLPFICSY
B1: the inhibition of heparanase activity (release of HS degradation fragments from 35S-labeled ECM, gel filtration) was 80 nM and 200 nM; the inhibition of recombinant heparanase activity by eosinophil lysates (cellular MBP), 35S-labeled ECM degradation (fold excess of MBP over heparanase) was 2.5.
